Measured values as given in the supplement of paper PMC10567573.

B1: ZNF263 (parent)
chain: HLTRHQRTHTGEKPYKCTLCGENF
B2: BTBD1 (parent)
chain: IVGFGLYGSIHGPTDYQVNIQIIE

Variants of: B1
Test: protein stability index of a GFP-peptide fusion (GPS, HEK-293T) (PSI 1-6); higher = more stable
Settings: c terminus: a fixed tail appended
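Also: lentivirally expressed fusions sorted by FACS into six bins by GFP to DsRed ratio, PSI derived from sequencing read proportions per bin multiplied by bin number.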

Variant | protein stability index
L2D | 4.16
L2A | 3.06
L2C | 4.73
H1I | 2.19
H1P | 4.14
H1N | 3.22
H1D | 2.97
H1K | 2.74
H1E | 2.97
H1A | 3.07
H1F | 1.36
H1C | 4.02
H1V | 2.46
H1S | 3.12
H1Q | 3.06
H1Y | 2.23
H1W | 2.22
H1T | 2.56
H1G | 2.19
H1R | 3.02
H1M | 3.02
H1L | 3.11

Variants of: B2
Test: as above
Settings: c terminus: a fixed tail appended

Variant | protein stability index
V2G | 2.59
V2M | 2.49
V2K | 2.02
V2A | 2.81
V2D | 2.79
V2W | 3.31
V2R | 2.96
G3W | 4.95
G3A | 3.04
G3F | 3.55
G3D | 3.42
G3S | 1.66
N19M | 4.59
N19H | 1.59
N19Q | 2.56
N19I | 3.1
N19W | 1.76
N19R | 2.13
F4L | 3.57
F4Q | 1.9
F4R | 2.25
F4W | 1.8
F4T | 2.1
F4M | 2.47
F4I | 3.05

Variant | protein stability index
F4S | 2.07
I20P | 2.21
I20Q | 2.58
I20H | 2.21
I20M | 4.04
I20K | 1.16
I20C | 2.49
I20E | 1.46
I22K | 2.4
I22A | 2.07
I22D | 1.3
I22L | 2.65
I22Q | 3
Q17F | 2.95
Q17R | 3.14
Q17A | 3.68
L6Q | 3.25
L6T | 2.16
L6Y | 3.48
L6P | 3.27
L6N | 2.56
L6V | 3.11
L6R | 2.67
L6F | 4.24
L6G | 4.42

Variant | protein stability index
L6E | 2.02
T14P | 3.3
T14W | 2.9
T14Q | 3.12
T14S | 3.24
T14N | 2.95
T14C | 2.51
V18F | 2.14
V18R | 2.39
V18E | 2.36
V18Q | 2.38
V18T | 4
V18I | 2.72
V18K | 2.42
G12E | 3.19
G12Q | 3.29
G12W | 2.56
G12Y | 1.89
G12L | 3.53
G12I | 1.72
G12S | 3.04
G12M | 2.27
E24T | 3.78
E24Q | 2.62
E24L | 4.16

Variant | protein stability index
E24K | 2.36
G8N | 2.5
G8P | 4.75
G8I | 2.28
G8Q | 3.42
H11N | 3.26
H11V | 3.12
H11P | 2.57
H11K | 1.55
I23W | 1.57
I23V | 2.82
I23R | 2.12
I23C | 2.05
I23H | 4.05
I23M | 3.68
I23N | 3.56
S9H | 1.88
S9V | 3.54
S9L | 3.19
S9T | 1.99
S9N | 3.18
S9Y | 2.58
S9Q | 2.56
Q21G | 2.44
Q21C | 2.19

Variant | protein stability index
Q21L | 2.66
Q21F | 1.77
Q21T | 2.1
Q21P | 2.37
Q21D | 3.52
P13D | 1.76
P13Y | 2.98
P13I | 4.51
P13W | 2.76
P13C | 2.51
P13A | 2.3
Y16Q | 1.69
Y16L | 2.09
Y16C | 3.51
Y16G | 4.04
Y16E | 2.15
Y16K | 3.23
Y16A | 2.1
Y16H | 1.6
Y16N | 2.41
I1N | 2.16
I1P | 1.82
I1F | 3.14
I1R | 1.65
I1E | 3.29

Variant | protein stability index
I1D | 2.03
I1H | 2.38
I1G | 3.43
I10T | 3.32
I10K | 1.76
I10C | 3.14
I10F | 3.05
I10V | 2.09
I10W | 1.64
Y7W | 3.5
Y7E | 3.6
Y7G | 2.06
G5D | 2.4
G5W | 2.79
G5P | 2.36
G5C | 2.63
G5M | 2.92
G5A | 4.32
D15N | 2.36
D15L | 3.05
